Laboratory results published in US20210163606A1 (ATYR PHARMA, published 2021).

Key:
[1] = target: T1, Cynomolgus NRP2 (aa23-854) with C-terminal Fc-tag (cynomolgus monkey); assay: SPR (ProteOn XPR36), antibody captured on anti-human Fab-kappa, cyno NRP2-Fc as analyte, bivalent analyte fit
T1 construct: range 23-854; sensorgrams fitted to a bivalent analyte model; also called Cynomolgus NRP2 antigen protein
Experimental: Anti-NRP2 antibody binding and affinity measurements. […] SPR experiments were conducted on a Bio-Rad ProteOn XPR36 Protein Interaction Array instrument. Biotinylated anti-human antibody (ThermoFisher Cat #7103302100) was immobilized on ProteOn NLC sensor chips. Anti-NRP2 antibodies were subsequently flowed over and captured by the anti-human antibody. Cynomolgus NRP2 antigen protein was flowed over the captured antibody at varying concentrations (150, 50, 16.67, 5.56, 1.85 nM). The sensor chip surface was regenerated between each analyte run to remove anti-NRP2 antibodies and NRP2 protein. Data was double referenced against a surface with no anti-NRP2 antibody captured (immobilized anti-human antibody only) and a buffer only blank. Affinity constants were derived by globally fitting sensograms to a bivalent analyte interaction model in the ProteOn manager software. For each anti-NRP2 antibody, data from the multiple NRP2 concentrations was fit as a single data set with dissociation rate constant (kd), association rate constant (kₐ) and Rₘₐₓ values as global parameters. The reported binding affinity is the equilibrium dissociation constant (KD) calculated from kd/kₐ. [0681] Running buffer: 50 mM HEPES, 300 mM NaCl, 5 mM CaCl₂, 0.005% Tween-20, pH 7.4 [0682] Immobilized antibody: CaptureSelect Human Fab-kappa Kinetics Biotin Conjugate, Thermo Fisher Cat #7103302100 [0683] Antigen: Cynomolgus NRP2 (aa23-854) with C-terminal Fc-tag [0684] Regeneration buffer: 10 mM glycine pH 2.0

[2] = target: T2, mouse NRP2 I407V on transfected Expi293 cells (Mouse, UniProt O35375 21-931); assay: flow cytometry, aNRP2-10v10 at 10 nM on transfected Expi293 cells gated on live, single, NRP2 expressing cells [panel 11B]
T2 construct: whole, on cells
T2 sequence (looked up): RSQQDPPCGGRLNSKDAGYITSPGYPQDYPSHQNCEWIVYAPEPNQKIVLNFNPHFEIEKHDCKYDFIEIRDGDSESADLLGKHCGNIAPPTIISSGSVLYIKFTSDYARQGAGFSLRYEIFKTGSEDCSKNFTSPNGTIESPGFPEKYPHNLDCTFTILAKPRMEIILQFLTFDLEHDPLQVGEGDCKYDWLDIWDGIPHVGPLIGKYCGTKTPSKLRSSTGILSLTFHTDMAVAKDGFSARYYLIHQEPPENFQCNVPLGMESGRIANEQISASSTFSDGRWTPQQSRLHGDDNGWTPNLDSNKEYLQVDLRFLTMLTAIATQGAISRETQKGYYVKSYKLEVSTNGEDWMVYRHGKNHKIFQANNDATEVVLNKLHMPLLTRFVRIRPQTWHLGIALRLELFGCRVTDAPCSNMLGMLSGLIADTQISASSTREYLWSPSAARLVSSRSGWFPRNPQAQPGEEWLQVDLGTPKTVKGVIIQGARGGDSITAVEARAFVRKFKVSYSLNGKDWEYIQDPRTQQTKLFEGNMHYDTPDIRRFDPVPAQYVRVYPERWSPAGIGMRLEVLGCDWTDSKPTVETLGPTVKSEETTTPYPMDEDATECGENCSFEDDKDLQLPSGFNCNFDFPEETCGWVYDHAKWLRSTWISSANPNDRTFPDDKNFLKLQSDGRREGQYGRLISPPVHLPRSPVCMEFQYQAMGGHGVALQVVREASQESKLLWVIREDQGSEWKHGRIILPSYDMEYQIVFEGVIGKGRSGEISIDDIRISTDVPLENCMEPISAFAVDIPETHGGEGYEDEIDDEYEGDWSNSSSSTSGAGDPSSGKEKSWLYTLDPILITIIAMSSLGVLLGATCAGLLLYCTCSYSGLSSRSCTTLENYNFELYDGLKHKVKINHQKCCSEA
Experimental: FIGS. 11A-11B show the measurement of antibody binding to Expi293 cells over-expressing NRP2. […] Gating for NRP2 over-expressing cells is shown.
Human NRP2a (version 2; see Table N1) and mouse NRP2v2 cDNAs were obtained from Origene. […] Human and mouse NRP2, expression vectors, along with expression vectors encoding all 6 mutants were transfected into Expi293 cells at 1 million cells/mL, by standard techniques. Approximately 40 hours post transfection cells were co-stained with aNRP2-10v10, and a species agnostic anti-NRP2 a1 specific binding antibody.

B1: aNRP2-10v10 (antibody, V domains shown)
VH: EVQLVQSGAEVKKPGATVKISCKVSGFNIKDYYVHWVQQAPGKGLEWMGRIDVEDDETKYAPKFQGRVTITADTSTDTAYMELSSLRSEDTAVYYCATPIYGAREAWFAYWGQGTLVTVSS
VL: DIQMTQSPSSLSASVGDRVTITCTASSSVSSSYLHWYQQKPGKAPKLLIYRTSNLASGVPSRFSGSGSGTDFTLTISSLQPEDFATYYCHQYYRSPPTFGGGTKVEIK
With B1 the Kd [1] was 32 pM and the binding result [2] was “no binding (tested: 10 nM)”.
